# Laboratory results reported in the DeepSol protein solubility set.
# Experiment: soluble on expression in E. coli; label from the status in PepcDB or PDB records
row,Sequence,soluble on expression in E. coli
1,MGSDKIHHHHHHMTNKYEEFKTYLKKIGSGEFTGKSLTREETKSALMLMLKEEASAAQIGGFMIAHRIRRPIPEELAGMIDAYIELGPKIQSPSNQRQPIFFGMPFDGRKKTAPIYPLTTLLLLTQKQPVILHGGSRMPVKYGVTHNELFQALGINLTGLSIEQLQSFFNHNYLALIHQPDHFPLAENLIPYRDQIGKRPPLASMELIWTCHQGSHLHISGYVHSPTEERHWKTLELMGEQNVITIKGLEGGIDLSISRSSTIGQYKNQHGTRTVFHPKDYECSGKDIEWSDITEWKKFALQALNGEGPLTKALEWNAGIYFFYAGISSDIKEGINKAKEVINSGFALKQLEKLIHWSDENIDS,not soluble
2,SLKALWIYVGPVEDYGWTRAHHDGHMKARSKLGWLESSYIETVSEDKAYDVIKAQLDAEGYDAVFATSYGYMDALKRLATEYPDVKFYHCSGPWEEFRDLPNVSTYFAEFYQLYYLNGLAAAGATETCNLGYIPAFLIPEVVRHINAYVIGAVEGAKVLGKCGDGRNIRVLVTPPLNSWFAPDKARDAARLLVETYDVDVIAYTEDTTAVLETAESYWDQGVKVYSFSHYTDMYAYFKSQGKTLRSHLTGQIS,soluble
3,MSFESNQLMPIAALRGGPGTPAADVLTAFALRRKAEGIDVVGVIVPPEDAGSGHQGHGHGEGHGGGHEGCECRSELIDIATGDRYAMHQDLGSGSQACNLNSSSLALAAGAVERAVARKPALVVLSRFGGQEAVRGGLMSAFQAAIAAGVPVACVVTPKAEDVWNDFAQGLSVSLPPEADALEAWWRDHARGRNAALEHHHHHH,not soluble
4,MKSKLKLHGFNNLTKTLSFNIYDICYAETPQDQQAYVEYINSVYDAERLTRILTDVVDIIGANILNIARQDYDPQGASVTILISEQPVTPTESQIEESPGPLPETILAHLDKSHITVHTYPEIHPVDGIATFRVDIDVSTCGVISPLKALNYLIHKFESDIVTVDYRVRGFTRDVEGKKHFIDHEINSIQNYLSEDTRNGYQMTDVNVYQENLFHTKMLLKQFELDNYLFGDATSNLSAEQREQVTAKVKHEMLEIFYGRNVAV,not soluble
5,AELPPEFAAQLRKIGDKVYCTWSAPDM,soluble
6,LLPLRGLLVFPTMVLHLDVGRKKSVEALEHAMIDDHYILLAAQKEISIDEPIETDIYQIGTYAKVKQMLKLPNGTIRVLVEGLQRAKIEKYVANDAFIEVEMCTLPEDDEDNATENKALMRNVLQLFEQYIKLSKKVSAETLASVSDIAEPGRLADVIASHLPLKIVEKQQLLETTSVKERLLQV,soluble
7,MSLDVNYVPQNTSDAPAIPSAALQQLTWTPVDQSKTQTTQLATGGQQLNVPGISGPVAAYSVPANIGELTLTLTSEVNKQTSVFAPNVLILDQNMTPSAFFPSSYFTYQEPGVMSADRLEGVMRLTPALGQQKLYVLVFTTEKDLQQTTQLLDPAKAYAKGVGNSIPDIPDPVARHTTDGLLKLKVKTNSSSSVLVGPLFGSSAPAPVTVGNTAAPAVAAPAPAPVKKSEPMLNDTESYFNTAIKNAVAKGDVDKALKLLDEAERLGSTSARSTFISSVKGKGEGHHHHHH,soluble
8,RPHVVKVYSEDGACRSVEVAAGATARHVCEMLVQRAHALSDETWGLVECHPHLALERGLEDHESVVEVQAAWPVGGDSRFVFRKNFA,soluble
9,MRFEDIGISKVDKVCLVDRLGCQENLVGTVHVTTTHIIFRAENGSKELWLATGLISSVEKGTLTAAGCMLVIRCKHFQVITLLISRDKSCQDLYETLQRAAKPVSVNVTELLAFENREPVEDVRGWRRLDWNSEMTRQGITKSQWTESNINEGYTICDTYPNKLWFPTAASTSVLLGSCKFRSRGRLPVLTYFHQQTEAALCRCAQPLTGFSARCVEDEKLMELVGKANTNSDNLFLVDTRPRVNAMVNKVQGKGFEDERNYSNMRFHFFDIENIHVMRASQARLLDAVTKCRDVTEYWKTLEASGWLKHVRSVVECSLFLAESISRGTSCVVHCSDGWDRTSQVVALCQLLLDPYYRTIHGFQVLIEKDWLGFGHKFDDRCGHVGALNDEAGKEVSPIFTQWLDCIWQIMQQKPRAFQFNERYLIEMHEHVYSCQFGTFIGNCDKDRRDLNLSKRTKSLWTWMDARHDDYMNPFYSPTAHVALLDLDTRAARFTVWTAMYNRFDNGLQPRERLEDLTMAAMEHVGVLESHVAQLRTRLAELKTQQNQQITSTNTPTNMVDSGMSSATDDLKNLSLSHPLDPLSSTLPILERATSQESGVMDSSLYYPDEALTKYSLKWQPLRGADRCSNPACRGEFSSTIERRIHCHLCGMIFCRRCLKVSADERERVCDKCKTD,not soluble
10,MSLSVIDLLKQRVQSAGKKPVIIFPEG,not soluble
11,MKVSELMTTDPITVSIDDTFSKVMSKMNETGIHQLPVMDGDRYAGMITYSDLLKKRSIQVKSKISNYTISTPTLNADDDVLEAVRLIKDTGLSALPVFQKGKLVGIISRTDIIKNLPQIVDVRDVRIFQIMSSDPIYVYEDDDIEEAFDSMRMLNEVEIPVASRDEKLSGIIRLNSILNILYRQKEKIKYGGYGEKEPVEIKCKSLMDPPVSVDRYAGIDEAVKLMMQYSLHIMPVTDSGKIVGIVDFSDLINMIKTESKEGILIEISGLDVYDEDLYDIAFELSERFLDKFSKMTDVSQGKLLIHVMKYKTQGSTKYSIRTRISAPPLFLVQNGSGWNFAEVLGEIFDRYEERIKKMKEKQ,not soluble
12,GAFGWEQDRGAPFSGRSPRILTRMTDAPRPTAGADAPARPPAAPLVAPNFITEIIERDLEAGKYPRVVTRFPPDPSGYAHLGHVFASLLDFNTARQYGGQFNLRMDDTNPELARQEYVDSIADDLKWLGLDWGEHFYYASDYFDRYYAYAEQLIRQGDAYVESVSPEELSRLRGNATTPGTPSPYRDRSVEENLDLLRRMKAGEFADGEHVLRAKIDLTAPNMKLRDPVLYRIVNKPHFRTSDEWHIYPAYDFEHPLQDAIEGVTHSMCSLEFVDNRAIYDWLMEKLNFDPRPHQYEFGRRGLEYTITSKRKLRELVQAGRVSGWDDPRMPTLRAQRRLGVTPEAVRAFAAQIGVSRTNRTVDIAVYENAVRDDLNHRAPRVMAVLDPVKVTLTNLDGEKTLSLPYWPHDVVRDSPDGLVGMPGGGRVAPEEAVRDVPLTRELYIERDDFSPAPPKGFKRLTPGGTVRLRGAGIIRADDFGTDEAGQVTHIRATLLGEDAKAAGVIHWVSAERALPAEFRLYDRLFRVPHPEGENADVEDDSAGPAEHEAEPGAGQETAPVSQGFMRYLTPDSLRVLRGYVEPSVAGDPADTRYQFERQGYFWRDPVELERVDSREDALVFGRIITLKDTWGKQGGGTQQKAEGKKRPSTKGRGPDEVRGEGSSSPAKAHAPKAQPLTPEQDAEFTRLLGLGASEGDARTIARDPALLAFVGGAAPGDTFAQVASWTVNELVAGLRAGEVKVRAADLAPLAEGVASGQLSARIAREALARAAASGDAPLTIIEREGLNAGLSAEALQQVVAQVIAANPDKAEAYRGGKTALLGFFTGQVMRATAGKADPQALAAALKDALA,soluble
13,MGSDKIHHHHHHMSVGEAMDTEVRAAAQAVCLAFNENPEAVEPRVQAAIAAAAARINRYPFDAEPRVMRKLAEHFSCPEDNLMLVRGIDECFDRISAEFSSMRFVTAWPGFDGYRARIAVSGLRHFEIGLTDDLLLDPNDLAQVSRDDCVVLANPSNPTGQALSAGELDQLRQRAGKLLIDETYVDYSSFRARGLAYGENELVFRSFSKSYGLAGLRLGALFGPSELIAAMKRKQWFCNVGTLDLHALEAALDNDRAREAHIAKTLAQRRRVADALRGLGYRVASSEANFVLVENAAGERTLRFLRERGIQVKDAGQFGLHHHIRISIGREEDNDRLLAALAEYSDHS,not soluble
14,MGSDKIHHHHHHVREVSKEKGKIDLVSGAASTPLTNDKCSPTGFHWTYDTYALANGTGNAVVKNGGKTWFFLTADYAFGHNLQAQTEKVVKANGGEVKGAVKHPFPNSDFSSFLLQAQASGAQIIGLANAGADTINAIKQAKEFGITQAGQQLAGLLVFITDIHSLGLETAQGMMLTTGFYWDMDDQTRAWSKRWSEKMGNGKMPSMVHAGTYSQVLHYLRAAAAAKTDEGIKVADEMRKLPINDFFAKNGKIRADGRMVHDMYLAQVKKPSESKGPWDYYKIVRTIPGDEAYQPLSESTCSLVKK,not soluble
15,DVQLQESGPGLVKPSQSLSLTCTVTGYSITNNYAWNWIRQFPGNKLEWMGYINYSGTTSYNPSLKSRISITRDTSKNQFFLQLNSVTTEDTATYFCVRGYDYFAMDYWGQGTSVTVSSAKTTPPSVYPLAPGSAAQTNSMVTLGCLVKGYFPEPVTVTWNSGSLSSGVHTFPAVLQSDLYTLSSSVTVPSSTWPSETVTCNVAHPASSTKVDKKIVPRDCG,soluble
16,FGSLTVFAGDSPYAPPAGGEAIGRLMERAMHDGLVAGGIVLVGNRHGTIYEHVFGKQSSLPDSPPVTSSTIFDIASLTKVIATTPAVMRLAEEGRLSLVDPLVRWFPEFAGHGKDDVLVVHLLTHTSGLDDFSLSSADPLQSAISGVAAQKLKGEPGNRFRYADINFILLGELVRRVTGSTLDRYAADAFLRPLGMKDTAFLPGPAIAERCAATLDGSGGPHFGTVQDPLARLLGGVAGHAGLFGTASDLALFCRMILGEGELNGRRVLEERTVRQMTAPYFSRGGKVTRGLGWDMASPFSSPRGEGFSEESFGHTGYSGGSIWIDPRTDTYVIFLS,not soluble
17,MLQDADRTRILAISPHLDDAVLSVGASLAQAEQDGGKVTVFTVFAGSAAPPYSPAAERFHARWGLSPTEDAPLRRRNEDIAALDQLGAGHRHGRFLDAIYRRSPDGQWLLHHNEGSMVRQQSPANNHDLVAAIREDIESMIAECDPTLVLTCVAIGKHPDHKATRDATLLAARERGIPLRLWQDLPYAAYSQDLAELPDGLRLGSPELSFVDEEARTRKFQAMKHYATQLSVLDGPNKNLFAKLDEHARNAAPDGGYNETTWPVIRYAAE,soluble
18,NTAPSLTVPECAICLQTCVHPVSLPCKHVFCYLCVKGASWLGKRCALCRQEIPEDFLD,soluble
19,MAHHHHHHMRVRHKVRNAVLLKGGEADTVKPLFLLNKIKNRKLQKRNNVTLHMDNSNEDTSRLSLLKNLDDESKVITQSPEWNEKMPLLEITNLHAMEVEGGKEILKGINLTIFLGEKHTIMGRNGSGKSTLAKVIAGHPYYKVTSGTIKFKGLNLSELPVNVRSLCGIFLAFQYPVELPMVKNNEFLRAALNSHRRQRNEPEISATEFDLLMIEEIKKVGLSSEFLDRPVNYGFSGGEKKRNEILQMLILKPSFCILDETDSGLDVDSFKLTSNVITNFSNEKNSFLIVTHYKKLLELLRPNFIHIMHQGKIIESGDYSLVDKIEAKGYAQFVKDS,not soluble
20,MGSDKIHHHHHHKDEIKHLVSEWQGKEIRFPKDMVFARFATDTVDFTLPKSPHKVLVFVDSIGCTSCKLQLHRWKELIQYTDSITQGTVPFLFFFQSDDKKEIRYLLKKDNFDKPICMDQSDRLNELNHFPADGRFQTFLLDKDNKVVVIGNPIHNPNIRELYLKEITGKQPASQIQTTVKVEEASIQLGTIQMGESKEAVFRLTNTGNNPLVILDAATTCGCARPSFDKHPAKPGEILQVRVIMTPKDKGVFDETISVKCNTNQLIKLNIRGMAQ,not soluble
21,MFSENLKKCRKQKKLTQQNMADKLGITRPAYTAYELGSREPDYKTLINISNILDVSLDYLLKGESNEKVFQDEAKKVLNDPETFLAAKDGEVTDEILQAALEIITEQLKERRKSDK,not soluble
